Measurements from patent US10058586B2, “Use of human small leucine zipper protein in adipocyte differentiation procedure” (Korea University Research and Business Foundation, priority 2013, dated 2018).

What was measured:
PPARγ2 = biological target: T1, PPARγ2 (Homo sapiens, UniProt P37231); test: His pull-down of purified His-sLZIP with in vitro translated PPARγ2; assay type: binding; design: made in house; host or cells: PPARγ2: TNT in vitro translation system (Promega); His-sLZIP: E. coli BL21, pET-28a(+)
T1 sequence (P37231 1-505): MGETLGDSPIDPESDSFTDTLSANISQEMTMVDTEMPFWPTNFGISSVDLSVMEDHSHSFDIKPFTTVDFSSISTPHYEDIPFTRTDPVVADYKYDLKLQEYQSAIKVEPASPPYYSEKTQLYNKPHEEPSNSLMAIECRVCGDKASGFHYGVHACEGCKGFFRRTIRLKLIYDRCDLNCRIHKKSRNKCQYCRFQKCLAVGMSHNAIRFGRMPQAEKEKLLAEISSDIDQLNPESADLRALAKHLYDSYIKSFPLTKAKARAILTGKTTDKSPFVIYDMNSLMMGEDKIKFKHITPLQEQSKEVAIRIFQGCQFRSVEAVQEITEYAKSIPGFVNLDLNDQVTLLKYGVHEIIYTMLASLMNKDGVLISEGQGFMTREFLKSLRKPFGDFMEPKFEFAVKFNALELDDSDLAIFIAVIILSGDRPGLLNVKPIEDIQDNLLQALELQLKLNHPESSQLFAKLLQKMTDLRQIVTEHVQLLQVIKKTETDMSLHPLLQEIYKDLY
Procedure: sLZIP was cloned into a pET-28a(+) vector. His-sLZIP proteins were expressed in Escherichia coli (E. coli) BL21 cells using a T7 isopropyl-β-D-thiogalactopyranoside (IPTG)-inducible system. IPTG-induced cells were disrupted bysonification and cell lysates were clarified by centrifugation. His-sLZIP proteins were applied onto a nickel-nitrilotriacetic acid bead column (Bio-Rad, Richmond, Calif.). The column was washed with a great volume of a lysis buffer and 10 mM of imidazole, and eluted in a Ni-NTA elution buffer (Bio-Rad Laboratories, Hercules, Calif.). A fraction containing His-sLZIP proteins was dialyzed against 10% glycerol, and stored at −80° C. Protein purification was evaluated according to 10% SDS-PAGE/Coomassie blue staining and a purity of >98% in general was shown.
In order to examine whether the transcriptional activity of PPARγ2 is regulated by interaction with sLZIP, interaction between sLZIP and PPARγ2 was examined. […] A protein complex was analyzed in SDS-PAGE and then immunoblotted with specific antibodies (FIG. 2A). […] Proteins bound to the bead were analyzed in SDS-PAGE, and then immunoblotted with anti-PPARγ2 and anti-His antibodies (FIG. 2C). GFP-PPARγ2 and Flag-sLZIP constructs were expressed in C3H10T1/2 cells, and analyzed using mouse anti-Flag and Texas Red-labeled anti-mouse antibodies under a fluorescence microscope. […]

HDAC3 = biological target: T2, HDAC3 (Mus musculus, UniProt O88895); test: Fluorescence microscopy, subcellular localization of sLZIP and HDAC3 in C3H10T1/2 cells; assay type: cell-based; conditions: GFP-sLZIP, anti-HDAC3
T2 construct: endogenous in cells; host or cells: C3H10T1/2 cells expressing GFP-sLZIP
T2 sequence (O88895 1-428): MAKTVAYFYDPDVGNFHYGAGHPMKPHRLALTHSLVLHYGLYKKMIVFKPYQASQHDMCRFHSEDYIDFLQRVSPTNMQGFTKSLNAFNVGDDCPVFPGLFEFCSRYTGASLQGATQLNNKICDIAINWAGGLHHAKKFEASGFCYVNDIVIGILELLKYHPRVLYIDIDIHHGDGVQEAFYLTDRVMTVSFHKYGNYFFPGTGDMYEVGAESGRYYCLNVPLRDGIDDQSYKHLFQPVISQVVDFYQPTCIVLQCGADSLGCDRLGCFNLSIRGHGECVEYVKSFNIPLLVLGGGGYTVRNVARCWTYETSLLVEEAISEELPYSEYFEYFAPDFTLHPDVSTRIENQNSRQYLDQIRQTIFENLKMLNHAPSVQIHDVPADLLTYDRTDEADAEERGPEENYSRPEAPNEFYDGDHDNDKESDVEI
Procedure: C3H10T1/2 cells were transiently ci-transfected with Flag-sLZIP, GFP-PPARγ2 or GFP-sLZIP, and HDAC3 was grown on cover slip. After 24 hours, the cells were fixed with 4% paraformaldehyde for 10 minutes and permeabilized 0.2% Triton-X 100 for 5 minutes. The cells were incubated with 1% BSA for one hour, and then incubated with anti-Flag and anti-HDAC3 antibodies overnight at 4° C. The cells were washed with PBS, and then were incubated with Texas Red-labeled antibodies for 2 hours. A cover slide was washed with PBS, and mounted on and examined using a LSM 510 META confocal microscopy (Carl Zeiss, Jena, Germany).
For this purpose, 293T cells were transiently transfected with PPARγ2 (0.5 μg), (3-galactosidase (0.1 μg), FABP4-Luc reporter genes (0.2 μg) and sLZIP (0.1 μg). After the transfection, the cells were stimulated with or without 10 nM of RZD and 10 nM of TSA (FIG. 4A). A promoter activity was measured according to luciferase analysis. In the 293T cells, FABP4-Luc reporter genes, sLZIP, PPAR, β-galactosidase, and 100 nM of si-RNAs and HDAC1, 2, 3 and 8 for a control group were expressed. After the transfection, the cells were stimulated with or without 10 nM of RZD, and a promoter activity was measured (FIG. 4B). […] A protein complex was analyzed in SDS-PAGE, and anti-GST and anti-Flag antibodies were used for immunoblotting (FIG. 4E). *, P<0.05; **, P<0.01

B1: sLZIP: human small leucine-zipper protein, isoform of LZIP, 354 amino acids, no transmembrane domain; GenBank FJ263669, SEQ ID NO: 1 (protein, listed as Homo sapiens)
chain: MELELDAGDQDLLAFLLEESGDLGTAPDEAVRAPLDWALPLSEVPSDWEVDDLLCSLLSPPASLNILSSSNPCLVHHDHTYSLPRETVSMDLESESCRKEGTQMTPQHMEELAEQEIARLVLTDEEKSLLEKEGLILPETLPLTKTEEQILKRVRRKIRNKRSAQESRRKKKVYVGGLESRVLKYTAQNMELQNKVQLLEEQNLSLLDQLRKLQAMVIEISNKTSSSSMYSSDTRGSLPAEHGVLSRQLRALPSEDPYQLELPALQSEVPKDSTHQWLDGSDCVLQAPGNTSCLLHYMPQAPSAEPPLEWPFPDLFSEPLCRGPILPLQANLTRKGGWLPTGSPSVILQDRYSG
With B1 the “direct interaction with PPARγ2 (His pull-down)” value (PPARγ2) was “PPARγ2 was directly bound to sLZIP” and the “subcellular localization of sLZIP and HDAC3” value (HDAC3) was “localized in the nucleus together with HDAC3”.
